± gives the uncertainty stated by the source.
Experiment: self-splicing fitness, log relative to wild type (ln ratio); higher = more splicing; Tetrahymena group I intron in knt gene, E. coli kanamycin selection, DiMSum; sequences stand for … in CUCUCU…GGAGGGAAAAGUUAUCAGGCAUGCACCUGGUAGCUAGUCUUUAAACCAAUAGAUUGCAUCGGUUUAAAAGGCAAGACCGUCAAAUUGCGGGAAAGGGGUCAACAGCCGUUCAGUACCAAGUCUCAGGGGAAACUUUGAGAUGGCCUUGCAAAGGGUAUGGUAAUAAGCUGACGGACAUGGUCCUAACCACGCAGCCAAGUCCUAAGUCAACAGAUCUUCUGUUGAUAUGGAUGCAGUUCACAGACUAAAUGUCGGUCGGGGAAGAUGUAUUCUUCUCAUAAGAUAUAGUCGGACCUCUCCUUAAUGGGAGCUAGCGGAUGAAGUGAUGCAACACUGGAGCCGCUGGGAACUAAUUUGUAUGCGAAAGUAUAUUGAUUAGUUUUGGAGUACUCGUGGUCG
Procedure, shortened: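 Six replicate transformations of E. coli BL21(DE3) with a pET-22b(+) library were grown overnight at 37°C or 30°C. The library randomised all eight P1ex-region intron nucleotides, the intron lying in the knt kanamycin-resistance gene, and plates were LB agar with or without 25 μg/mL kanamycin plus 100 μg/mL carbenicillin, 50 μM IPTG and 0.2% rhamnose. Pooled colonies were amplicon-sequenced on an Illumina HiSeq 2500, and fitness is the DiMSum error-weighted combination of wild-type-normalised replicate fold changes, kanamycin versus none.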

Row | Sequence | self-splicing fitness (ln) (30 °C) | self-splicing fitness (ln) (37 °C)
1 | UGGAAGCAAUAUUACGCAGC | -2.22 ± 0.42 | -2.6 ± 0.26
2 | UGGAAGCAAUAUUACGCCAG | -1.55 ± 0.18 | 0.0553 ± 0.21
3 | UGGAAGCAAUAUUACGCGUG | -0.258 ± 0.091 | -0.135 ± 0.12
4 | UGGAAGCAAUAUUACGCUGC | -3.48 ± 0.32 | -2.15 ± 0.38
5 | UGGAAGCAAUAUUACGGCAG | -1.15 ± 0.16 | -0.772 ± 0.25
6 | UGGAAGCAAUAUUACGGCCG | -0.385 ± 0.18 | -0.0898 ± 0.3
7 | UGGAAGCAAUAUUACGGGCA | -0.216 ± 0.083 | -0.335 ± 0.087
8 | UGGAAGCAAUAUUACGGGUU | -2.85 ± 0.18 | -2.38 ± 0.41
9 | UGGAAGCAAUAUUACGGUAG | -1.89 ± 0.12 | -1.82 ± 0.11
10 | UGGAAGCAAUAUUACGUAAG | -1.07 ± 0.12 | -0.81 ± 0.13
11 | UGGAAGCAAUAUUACGUACA | -0.926 ± 0.1 | 0.227 ± 0.11
12 | UGGAAGCAAUAUUACGUCGG | -0.128 ± 0.11 | -0.162 ± 0.11
13 | UGGAAGCAAUAUUACGUGUG | -1.06 ± 0.073 | -0.706 ± 0.091
14 | UGGAAGCAAUAUUACGUUAU | -2.23 ± 0.14 | -3.09 ± 0.2
15 | UGGAAGCAAUAUUACGUUCG | 0.201 ± 0.087 | -0.347 ± 0.096
16 | UGGCAGCAAUAUUACGAAUA | -1.36 ± 0.12 | -0.17 ± 0.13
17 | UGGCAGCAAUAUUACGAGAG | -2.95 ± 0.21 | -2.74 ± 0.29
18 | UGGCAGCAAUAUUACGAGCC | -2.1 ± 0.29 | -2.37 ± 0.44
19 | UGGCAGCAAUAUUACGAUCA | -0.413 ± 0.14 | -0.198 ± 0.12
20 | UGGCAGCAAUAUUACGCAAA | -1.87 ± 0.23 | -0.513 ± 0.26
21 | UGGCAGCAAUAUUACGCAGU | -4.13 ± 0.36 | -2.57 ± 0.21
22 | UGGCAGCAAUAUUACGCAUU | -1.05 ± 0.097 | -0.267 ± 0.089
23 | UGGCAGCAAUAUUACGCGAA | -0.273 ± 0.088 | -0.139 ± 0.1
24 | UGGCAGCAAUAUUACGCGUU | -1.6 ± 0.077 | -0.555 ± 0.081
25 | UGGCAGCAAUAUUACGGAAU | -2.54 ± 0.12 | -1.22 ± 0.17

Row | Sequence | self-splicing fitness (ln) (30 °C) | self-splicing fitness (ln) (37 °C)
26 | UGGCAGCAAUAUUACGGACG | 0.0917 ± 0.19 | 0.916 ± 0.24
27 | UGGCAGCAAUAUUACGGAGU | -2.61 ± 0.17 | -3.96 ± 0.31
28 | UGGCAGCAAUAUUACGGCCU | -1.91 ± 0.18 | -1.57 ± 0.18
29 | UGGCAGCAAUAUUACGGGAA | -2.17 ± 0.13 | -0.784 ± 0.1
30 | UGGCAGCAAUAUUACGGUAG | -0.874 ± 0.062 | -0.684 ± 0.084
31 | UGGCAGCAAUAUUACGGUCC | -0.382 ± 0.16 | 0.88 ± 0.13
32 | UGGCAGCAAUAUUACGUAAA | -0.723 ± 0.077 | -0.922 ± 0.093
33 | UGGCAGCAAUAUUACGUACA | 0.117 ± 0.071 | 0.116 ± 0.1
34 | UGGCAGCAAUAUUACGUAUC | -3.85 ± 0.31 | -1.82 ± 0.25
35 | UGGCAGCAAUAUUACGUCAG | -0.12 ± 0.074 | -0.817 ± 0.11
36 | UGGCAGCAAUAUUACGUCUC | -1.64 ± 0.11 | -0.21 ± 0.13
37 | UGGCAGCAAUAUUACGUUGC | -3.77 ± 0.19 | -2.37 ± 0.13
38 | UGGGAGCAAUAUUACGAGUG | -2.24 ± 0.31 | -0.927 ± 0.28
39 | UGGGAGCAAUAUUACGCAUC | -3 ± 0.32 | -2.58 ± 0.38
40 | UGGGAGCAAUAUUACGCGGA |  | -2.73 ± 0.34
41 | UGGGAGCAAUAUUACGCUAG | -2.79 ± 0.32 | -1.99 ± 0.36
42 | UGGGAGCAAUAUUACGGCAU |  | -2.47 ± 0.45
43 | UGGGAGCAAUAUUACGUAAG | -0.459 ± 0.15 | -1.12 ± 0.2
44 | UGGGAGCAAUAUUACGUACU |  | -2.02 ± 0.33
45 | UGGGAGCAAUAUUACGUCUA | -1.22 ± 0.12 | -0.187 ± 0.16
46 | UGGGAGCAAUAUUACGUCUC | -3.13 ± 0.32 | -2.93 ± 0.44
47 | UGGGAGCAAUAUUACGUGUG | -1.75 ± 0.22 | -2.26 ± 0.33
48 | UGGGAGCAAUAUUACGUUUG | -3.75 ± 0.27 | -2.14 ± 0.27
49 | UGGUAGCAAUAUUACGACGC |  | 1.38 ± 0.5
50 | UGGUAGCAAUAUUACGCAGA | -2.45 ± 0.16 | -0.684 ± 0.1

Row | Sequence | self-splicing fitness (ln) (30 °C) | self-splicing fitness (ln) (37 °C)
51 | UGGUAGCAAUAUUACGCAUA | -1.11 ± 0.22 | -0.547 ± 0.17
52 | UGGUAGCAAUAUUACGCCAA | -1.77 ± 0.15 | -0.723 ± 0.12
53 | UGGUAGCAAUAUUACGCUAU | -4.7 ± 0.42 | -2.87 ± 0.23
54 | UGGUAGCAAUAUUACGGAAU |  | -0.962 ± 0.23
55 | UGGUAGCAAUAUUACGGCAG | -1.15 ± 0.13 | 0.129 ± 0.17
56 | UGGUAGCAAUAUUACGGCUG | -1.99 ± 0.15 | -0.886 ± 0.26
57 | UGGUAGCAAUAUUACGGGCA | -0.0931 ± 0.13 | 0.591 ± 0.13
58 | UGGUAGCAAUAUUACGGGCC | -1.4 ± 0.23 | 
59 | UGGUAGCAAUAUUACGGGGA | -2.58 ± 0.26 | -2.18 ± 0.18
60 | UGGUAGCAAUAUUACGGGUC | -3.15 ± 0.4 | -2.9 ± 0.47
61 | UGGUAGCAAUAUUACGGUAA | -1.34 ± 0.18 | -0.209 ± 0.12
62 | UGGUAGCAAUAUUACGGUCA | -0.695 ± 0.097 | -0.176 ± 0.1
63 | UGGUAGCAAUAUUACGGUGU | -4.11 ± 0.31 | -0.563 ± 0.13
64 | UGGUAGCAAUAUUACGUAUA | -1.51 ± 0.14 | -0.00881 ± 0.14
65 | UGGUAGCAAUAUUACGUCAC |  | -1.37 ± 0.45
66 | UGGUAGCAAUAUUACGUCUG | -0.683 ± 0.11 | 0.409 ± 0.17
67 | UGGUAGCAAUAUUACGUUCC | -2.33 ± 0.23 | -1.19 ± 0.36
68 | UGGUAGCAAUAUUACGUUGG | -1.4 ± 0.12 | -1.7 ± 0.14
69 | UGUAAGCAAUAUUACGAGAU | -3.71 ± 0.3 | -3.14 ± 0.37
70 | UGUAAGCAAUAUUACGAUAG | -1.44 ± 0.25 | -1.87 ± 0.29
71 | UGUAAGCAAUAUUACGAUGA | -0.986 ± 0.098 | -0.393 ± 0.13
72 | UGUAAGCAAUAUUACGCAGC | -3.28 ± 0.35 | -1.44 ± 0.19
73 | UGUAAGCAAUAUUACGCAUC | -3.16 ± 0.31 | -1.74 ± 0.23
74 | UGUAAGCAAUAUUACGCCGU | -2.48 ± 0.26 | -3.08 ± 0.47
75 | UGUAAGCAAUAUUACGCGGA | -1.91 ± 0.26 | -1.29 ± 0.2

Row | Sequence | self-splicing fitness (ln) (30 °C) | self-splicing fitness (ln) (37 °C)
76 | UGUAAGCAAUAUUACGGCAC | -1.49 ± 0.24 | -1.48 ± 0.42
77 | UGUAAGCAAUAUUACGGCCA | -0.0492 ± 0.076 | -0.0953 ± 0.12
78 | UGUAAGCAAUAUUACGGCUU | -1.01 ± 0.12 | -1.15 ± 0.15
79 | UGUAAGCAAUAUUACGGGCA | -0.98 ± 0.09 | 0.521 ± 0.1
80 | UGUAAGCAAUAUUACGUGAC | -3.47 ± 0.33 | -1.77 ± 0.23
81 | UGUAAGCAAUAUUACGUGGC | -4.03 ± 0.4 | -2.26 ± 0.37
82 | UGUAAGCAAUAUUACGUUAC | -2.91 ± 0.22 | -3.12 ± 0.37
83 | UGUAAGCAAUAUUACGUUAG | -1.56 ± 0.14 | -0.556 ± 0.17
84 | UGUAAGCAAUAUUACGUUCG | 0.188 ± 0.095 | 0.33 ± 0.12
85 | UGUAAGCAAUAUUACGUUUG | -1.24 ± 0.069 | -0.871 ± 0.084
86 | UGUCAGCAAUAUUACGACUU | -1.14 ± 0.1 | 0.303 ± 0.16
87 | UGUCAGCAAUAUUACGAGGU | -2.83 ± 0.33 | -2.81 ± 0.41
88 | UGUCAGCAAUAUUACGAGUU | -1.33 ± 0.14 | -1.44 ± 0.2
89 | UGUCAGCAAUAUUACGAUAA | -0.114 ± 0.06 | 0.438 ± 0.074
90 | UGUCAGCAAUAUUACGCAAU | -1.81 ± 0.14 | -2.24 ± 0.2
91 | UGUCAGCAAUAUUACGCAGU | -1.27 ± 0.18 | -0.898 ± 0.27
92 | UGUCAGCAAUAUUACGCAUG | -0.692 ± 0.077 | 0.415 ± 0.097
93 | UGUCAGCAAUAUUACGCCCA | 0.0616 ± 0.14 | 0.348 ± 0.18
94 | UGUCAGCAAUAUUACGCGCG | -0.708 ± 0.14 | 0.0603 ± 0.13
95 | UGUCAGCAAUAUUACGCGUG | 0.623 ± 0.069 | 0.117 ± 0.098
96 | UGUCAGCAAUAUUACGGAGG | -1.68 ± 0.072 | -0.948 ± 0.097
97 | UGUCAGCAAUAUUACGGAGU | -3.6 ± 0.17 | -1.96 ± 0.15

Reference: the supplement of paper PMC7877785
